# Test results published in publication doi:10.1101/2022.12.09.519754, “Conformational restriction shapes inhibition of a multidrug efflux adaptor protein” (bioRxiv, 2022).
# Where a chain is given by its changes, count along the chain named.
# T1: AcrB in SMALP (styrene maleic acid lipid particle) native nanodiscs (E. coli, UniProt P31224 1-1049)
# T1 construct: AcrB, inner membrane transporter of AcrAB-TolC, E. coli; Embedded in native lipid nanodiscs; also called trimeric AcrB SMALPs; source: E. coli C43(DE3) ΔacrAB, pET15b; extracted from membranes with 2.5% SMA 2000, purified (nickel NTA, PD-10 desalting)
# T1 sequence: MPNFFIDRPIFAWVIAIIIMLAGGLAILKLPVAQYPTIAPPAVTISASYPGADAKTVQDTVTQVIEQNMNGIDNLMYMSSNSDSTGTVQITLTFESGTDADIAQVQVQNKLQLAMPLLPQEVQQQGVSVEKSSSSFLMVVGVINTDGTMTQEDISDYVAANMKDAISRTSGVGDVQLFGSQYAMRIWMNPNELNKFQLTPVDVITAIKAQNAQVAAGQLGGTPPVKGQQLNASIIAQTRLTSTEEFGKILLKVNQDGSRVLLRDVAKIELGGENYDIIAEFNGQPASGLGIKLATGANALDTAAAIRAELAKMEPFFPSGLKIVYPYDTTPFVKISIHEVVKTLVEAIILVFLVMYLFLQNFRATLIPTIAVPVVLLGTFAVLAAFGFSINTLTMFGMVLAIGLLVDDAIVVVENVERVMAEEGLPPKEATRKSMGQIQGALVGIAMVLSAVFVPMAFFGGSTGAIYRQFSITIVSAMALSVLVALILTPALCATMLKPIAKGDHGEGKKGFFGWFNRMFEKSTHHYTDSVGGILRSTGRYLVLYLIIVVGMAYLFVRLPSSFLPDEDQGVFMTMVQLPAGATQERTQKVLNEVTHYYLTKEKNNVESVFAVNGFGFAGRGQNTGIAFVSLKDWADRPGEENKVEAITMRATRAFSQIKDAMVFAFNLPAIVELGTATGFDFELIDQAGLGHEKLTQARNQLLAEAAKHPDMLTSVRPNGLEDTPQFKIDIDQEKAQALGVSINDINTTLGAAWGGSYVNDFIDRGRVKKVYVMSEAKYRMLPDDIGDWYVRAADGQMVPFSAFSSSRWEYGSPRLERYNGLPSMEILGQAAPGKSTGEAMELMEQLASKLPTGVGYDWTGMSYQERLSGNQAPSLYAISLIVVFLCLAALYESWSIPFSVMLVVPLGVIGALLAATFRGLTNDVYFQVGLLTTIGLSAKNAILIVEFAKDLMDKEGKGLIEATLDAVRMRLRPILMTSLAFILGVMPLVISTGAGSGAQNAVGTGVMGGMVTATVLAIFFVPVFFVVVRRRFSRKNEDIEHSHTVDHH
# B1: AcrA^L (lipidated AcrA, expressed from full length AcrA with its signal peptide) (natural protein)
# chain: CDDKQAQQGGQQMPAVGVVTVKTEPLQITTELPGRTSAYRIAEVRPQVSGIILKRNFKEGSDIEAGVSLYQIDPATYQATYDSAKGDLAKAQAAANIAQLTVNRYQKLLGTQYISKQEYDQALADAQQANAAVTAAKAAVETARINLAYTKVTSPISGRIGKSNVTEGALVQNGQATALATVQQLDPIYVDVTQSSNDFLRLKQELANGTLKQENGKAKVSLITSDGIKFPQDGTLEFSDVTVDQTTGSITLRAIFPNPDHTLLPGMFVRARLEEGLNPNAILVPQQGVTRTPRGDATVLVVGADDKVETRPIVASQAIGDKWLVTEGLKAGDRVVISGLQKVRPGVQVKAQEVTADNNQQAASGAQPEQSKS
# modifications: lipidated (palmitoylation) at Cys25 after cleavage of signal peptide 1-24
# notes: AcrA, periplasmic adaptor protein of AcrAB-TolC, E. coli; full length AcrA amplified from genomic DNA; signal peptide residues 1-24 are cleaved and Cys25 is lipidated, so the protein in the assay starts at Cys25; Measured in DDM micelles (0.03 % DDM, 2 x CMC); source: E. coli C43(DE3) ΔacrAB, pET28a; solubilised from membranes with 1% DDM, purified (HiTrap, SEC) in 0.03% DDM
# B2: AcrA^S (soluble AcrA lacking signal peptide and lipidation, Cys25Met) (natural protein)
# chain: B1 chain with C1M
# notes: AcrA, E. coli; lacks signal peptide residues 1-24; Cys25 replaced by a starting methionine (Met25); not lipidated; source: E. coli C43(DE3) ΔacrAB, pET28a; purified from the cytoplasmic fraction (HiTrap, SEC)
# Tests used:
# [1] = molecular target: the molecule itself; experiment: native MS; AcrA^L in 100 mM ammonium acetate pH 6.0 with 0.03 % DDM (2 x CMC); sampling cone 120 V, trap collision energy 50-200 V
# [2] = molecular target: the molecule itself; experiment: native MS; AcrA^L in 100 mM ammonium acetate pH 7.4 with 0.03 % DDM
# [3] = molecular target: T1, AcrB in SMALP (styrene maleic acid …); experiment: native gel or EMSA; SMA-PAGE (native PAGE for SMALPs): AcrB in SMALP nanodiscs with AcrA^S or AcrA^SD; Novex Tris-glycine 4-20% gels, 25 mM Tris pH 8.8, 192 mM glycine, 150 V, 90-120 min, 4 °C, Coomassie stain; details: both partners purified
Binder,stoichiometry N [1],stoichiometry N [2],stoichiometry N [3]
B1,2,≤ 5,
B2,,,1
